Measured values as given in the RNAGym collection of RNA variant scans (doi:10.7554/elife.80360).

B1: CPEB3 Ribozyme (parent)
chain: GGGGGCCACAGCAGAAGCGUUCACGUCGCGGCCCCUGUCAGAUUCUGGUGAAUCUGCGAAUUCUGCUGU

Variants of: B1
Assay: self-cleavage, relative activity (ratio to wild type); higher = more cleavage; co-transcriptional

First: GGGGGCCACAGCAGAAGCGUUCACGUCGCGGCCCCUGUCAGAUUCUGGGGAAUCUGCGAAGUCUGCUGU
Second: GGGGGCCACAGCAGAAGCGUUCACGUCGCGGCCCCUGUCAGAUUCUGGUUAAUCUGCGAAUUGUGCUGU
The self-cleavage of the first is higher: 0.991 for the first, 0.844 for the second.

Compared with GGGGGCCACAGCAGAAGCGUUCACGUCGCGGCCCCUGUCAGAUUCUGGUAAAACUGCGAAUUCUGCUGU, GGGGGCCACAGCAGAAGCGUUCACGUCGCGGCCCCUGUCAGAUUCUGGUAAAUCUGCGAAUUCUGCGGU is higher in self-cleavage: 0.903 for the first, 1.02 for the second.

First: GGGGGCCACAGCAGAAGCGUUCACGUCGCGGCCCCUGUCAGAUUCUGGUAAAUCUGCGAAUUCUGCCGU
Second: GGGGGCCACAGCAGAAGCGUUCACGUCGCGGCCCCUGUCAGAUUCUGGGGAAUAUGCGAAUUCUGCUGU
The self-cleavage of the first is higher: 1.01 for the first, 0.907 for the second.

First: GGGGGCCACAGCAGAAGCGUUCACGUCGCGGCCCCUGUCAGAUUCUGGGGAAUGUGCGAAUUCUGCUGU
Second: GGGGGCCACAGCAGAAGCGUUCACGUCGCGGCCCCUGUCAGAUUCUGGUAAAUCUGCGAAUUCUGCUGU
The self-cleavage of the first is lower: 0.925 for the first, 0.999 for the second.

Compared with GGGGGCCACAGCAGAAGCGUUCACGUCGCGGCCCCUGUCAGAUUCUGGUCAAUCUGCGAAUUCUGCUGU, GGGGGCCACAGCAGAAGCGUUCACGUCGCGGCCCCUGUCAGAUUCUGGUUAAUCUGCGAAUUCUGCUGU is higher in self-cleavage: 0.996 for the first, 0.997 for the second.

First: GGGGGCCACAGCAGAAGCGUUCACGUCGCGGCCCCUGUCAGAUUCUGGUUAGUCUGCGAAUUCUGCUGU
Second: GGGGGCCACAGCAGAAGCGUUCACGUCGCGGCCCCUGUCAGAUUCUGGUCAAUCUGGGAAUUCUGCUGU
The self-cleavage of the first is higher: 0.976 for the first, 0.314 for the second.

Compared with GGGGGCCACAGCAGAAGCGUUCACGUCGCGGCCCCUGUCAGAUUCUGGUCAUUCUGCGAAUUCUGCUGU, GGGGGCCACAGCAGAAGCGUUCACGUCGCGGCCCCUGUCAGAUUCUGGUCAAUCUGCAAAUUCUGCUGU is higher in self-cleavage: 0.884 for the first, 0.935 for the second.

Going from GGGGGCCACAGCAGAAGCGUUCACGUCGCGGCCCCUGUCAGAUUCUGGUAAAUCGGCGAAUUCUGCUGU to GGGGGCCACAGCAGAAGCGUUCACGUCGCGGCCCCUGUCAGAUUCUGGUAAAUCCGCGAAUUCUGCUGU, the self-cleavage falls from 0.858 to 0.79.

First: GGGGGCCACAGCAGAAGCGUUCACGUCGCGGCCCCUGUCAGAUUCUGGUAAAUCUGAGAAUUCUGCUGU
Second: GGGGGCCACAGCAGAAGCGUUCACGUCGCGGCCCCUGUCAGAUUCUGGUAAAUCUGUGAAUUCUGCUGU
The self-cleavage of the first is higher: 0.448 for the first, 0.356 for the second.

Compared with GGGGGCCACAGCAGAAGCGUUCACGUCGCGGCCCCUGUCAGAUUCUGGUAAAUCUGCGAAGUCUGCUGU, GGGGGCCACAGCAGAAGCGUUCACGUCGCGGCCCCUGUCAGAUUCUGGUUAAUGUGCGAAUUCUGCUGU is lower in self-cleavage: 0.876 for the first, 0.781 for the second.

Compared with GGGGGCCACAGCAGAAGCGUUCACGUCGCGGCCCCUGUCAGAUUCUGGUCAAUCUGCGAAUUCUUCUGU, GGGGGCCACAGCAGAAGCGUUCACGUCGCGGCCCCUGUCAGAUUCUGGUCAAUCUGCGAAUUCUGCAGU is higher in self-cleavage: 0.774 for the first, 0.955 for the second.

Going from GGGGGCCACAGCAGAAGCGUUCACGUCGCGGCCCCUGUCAGAUUCUGGUCAAUAUGCGAAUUCUGCUGU to GGGGGCCACAGCAGAAGCGUUCACGUCGCGGCCCCUGUCAGAUUCUGGUUAAUCUGCGCAUUCUGCUGU, the self-cleavage rises from 0.53 to 0.682.

First: GGGGGCCACAGCAGAAGCGUUCACGUCGCGGCCCCUGUCAGAUUCUGGUUAAUCUGCGAAUUCUGUUGU
Second: GGGGGCCACAGCAGAAGCGUUCACGUCGCGGCCCCUGUCAGAUUCUGGUUAAUCUGCGAAUUCUGGUGU
The self-cleavage of the first is higher: 1.01 for the first, 0.923 for the second.

Compared with GGGGGCCACAGCAGAAGCGUUCACGUCGCGGCCCCUGUCAGAUUCUGGUUAAUCUGCGAAUUCUGAUGU, GGGGGCCACAGCAGAAGCGUUCACGUCGCGGCCCCUGUCAGAUUCUGGGGAAUCUGCGAAUUCUGCCGU is higher in self-cleavage: 0.824 for the first, 0.964 for the second.

Compared with GGGGGCCACAGCAGAAGCGUUCACGUCGCGGCCCCUGUCAGAUUCUGGUUCAUCUGCGAAUUCUGCUGU, GGGGGCCACAGCAGAAGCGUUCACGUCGCGGCCCCUGUCAGAUUCUGGUAAAUCUGCGAAUUCGGCUGU is lower in self-cleavage: 0.938 for the first, 0.892 for the second.

Compared with GGGGGCCACAGCAGAAGCGUUCACGUCGCGGCCCCUGUCAGAUUCUGGUAAAUCUGCGAAUUCCGCUGU, GGGGGCCACAGCAGAAGCGUUCACGUCGCGGCCCCUGUCAGAUUCUGGGGAAUCUGCGAAUUCUGAUGU is higher in self-cleavage: 0.874 for the first, 0.891 for the second.

Compared with GGGGGCCACAGCAGAAGCGUUCACGUCGCGGCCCCUGUCAGAUUCUGGUUAAUCUGCCAAUUCUGCUGU, GGGGGCCACAGCAGAAGCGUUCACGUCGCGGCCCCUGUCAGAUUCUGGUAAAUCUCCGAAUUCUGCUGU is lower in self-cleavage: 0.942 for the first, 0.675 for the second.

First: GGGGGCCACAGCAGAAGCGUUCACGUCGCGGCCCCUGUCAGAUUCUGGUAAAUCUUCGAAUUCUGCUGU
Second: GGGGGCCACAGCAGAAGCGUUCACGUCGCGGCCCCUGUCAGAUUCUGGUAAAUCUGCGCAUUCUGCUGU
The self-cleavage of the first is higher: 0.905 for the first, 0.806 for the second.

First: GGGGGCCACAGCAGAAGCGUUCACGUCGCGGCCCCUGUCAGAUUCUGGUUAAUCUGCGAAUUCUGCUUU
Second: GGGGGCCACAGCAGAAGCGUUCACGUCGCGGCCCCUGUCAGAUUCUGGUUAACCUGCGAAUUCUGCUGU
The self-cleavage of the first is higher: 1.02 for the first, 0.909 for the second.

Going from GGGGGCCACAGCAGAAGCGUUCACGUCGCGGCCCCUGUCAGAUUCUGGUUAAUCUGCGAGUUCUGCUGU to GGGGGCCACAGCAGAAGCGUUCACGUCGCGGCCCCUGUCAGAUUCUGGUUAAUCUGCGACUUCUGCUGU, the self-cleavage falls from 0.973 to 0.382.

Going from GGGGGCCACAGCAGAAGCGUUCACGUCGCGGCCCCUGUCAGAUUCUGGUCGAUCUGCGAAUUCUGCUGU to GGGGGCCACAGCAGAAGCGUUCACGUCGCGGCCCCUGUCAGAUUCUGGUCCAUCUGCGAAUUCUGCUGU, the self-cleavage falls from 0.982 to 0.876.

Going from GGGGGCCACAGCAGAAGCGUUCACGUCGCGGCCCCUGUCAGAUUCUGGGGAAUCUGCGAAUUCUACUGU to GGGGGCCACAGCAGAAGCGUUCACGUCGCGGCCCCUGUCAGAUUCUGGUUAAUCUCCGAAUUCUGCUGU, the self-cleavage falls from 0.97 to 0.649.

Compared with GGGGGCCACAGCAGAAGCGUUCACGUCGCGGCCCCUGUCAGAUUCUGGGUAAUCUGCGAAUUCUGCUGU, GGGGGCCACAGCAGAAGCGUUCACGUCGCGGCCCCUGUCAGAUUCUGGGCAAUCUGCGAAUUCUGCUGU is lower in self-cleavage: 0.993 for the first, 0.975 for the second.

Compared with GGGGGCCACAGCAGAAGCGUUCACGUCGCGGCCCCUGUCAGAUUCUGGUAAAUUUGCGAAUUCUGCUGU, GGGGGCCACAGCAGAAGCGUUCACGUCGCGGCCCCUGUCAGAUUCUGGUAAAUGUGCGAAUUCUGCUGU is lower in self-cleavage: 0.992 for the first, 0.848 for the second.

Compared with GGGGGCCACAGCAGAAGCGUUCACGUCGCGGCCCCUGUCAGAUUCUGGUAAAUCUGCGAAUUUUGCUGU, GGGGGCCACAGCAGAAGCGUUCACGUCGCGGCCCCUGUCAGAUUCUGGUCAAACUGCGAAUUCUGCUGU is lower in self-cleavage: 0.986 for the first, 0.899 for the second.

Going from GGGGGCCACAGCAGAAGCGUUCACGUCGCGGCCCCUGUCAGAUUCUGGUCAAUCUGCGAAUUCUGCUGC to GGGGGCCACAGCAGAAGCGUUCACGUCGCGGCCCCUGUCAGAUUCUGGUAAAUCUGCGAAUUCUGCUGA, the self-cleavage falls from 1.07 to 0.982.

Going from GGGGGCCACAGCAGAAGCGUUCACGUCGCGGCCCCUGUCAGAUUCUGGUAAAUCUGCCAAUUCUGCUGU to GGGGGCCACAGCAGAAGCGUUCACGUCGCGGCCCCUGUCAGAUUCUGGUCAAUCUGCGAAUUCUGCUAU, the self-cleavage falls from 1 to 0.992.

Compared with GGGGGCCACAGCAGAAGCGUUCACGUCGCGGCCCCUGUCAGAUUCUGGUAAAUCUGCGAAUUCUCCUGU, GGGGGCCACAGCAGAAGCGUUCACGUCGCGGCCCCUGUCAGAUUCUGGGGAAUCUGCGAAUUCUGCUCU is higher in self-cleavage: 0.683 for the first, 0.958 for the second.

Compared with GGGGGCCACAGCAGAAGCGUUCACGUCGCGGCCCCUGUCAGAUUCUGGGGAAUCUGCGAAUUCUGCUAU, GGGGGCCACAGCAGAAGCGUUCACGUCGCGGCCCCUGUCAGAUUCUGGGGAAUCUGCGAAUUCGGCUGU is lower in self-cleavage: 1 for the first, 0.926 for the second.

First: GGGGGCCACAGCAGAAGCGUUCACGUCGCGGCCCCUGUCAGAUUCUGGGGAAUCUGCGAAUUCCGCUGU
Second: GGGGGCCACAGCAGAAGCGUUCACGUCGCGGCCCCUGUCAGAUUCUGGGGAAACUGCGAAUUCUGCUGU
The self-cleavage of the first is higher: 0.932 for the first, 0.918 for the second.

Going from GGGGGCCACAGCAGAAGCGUUCACGUCGCGGCCCCUGUCAGAUUCUGGGGAACCUGCGAAUUCUGCUGU to GGGGGCCACAGCAGAAGCGUUCACGUCGCGGCCCCUGUCAGAUUCUGGGGAAGCUGCGAAUUCUGCUGU, the self-cleavage falls from 0.98 to 0.585.

First: GGGGGCCACAGCAGAAGCGUUCACGUCGCGGCCCCUGUCAGAUUCUGGGGAAUCUGCGACUUCUGCUGU
Second: GGGGGCCACAGCAGAAGCGUUCACGUCGCGGCCCCUGUCAGAUUCUGGUCAAUCUGCGAGUUCUGCUGU
The self-cleavage of the first is lower: 0.338 for the first, 0.959 for the second.

Compared with GGGGGCCACAGCAGAAGCGUUCACGUCGCGGCCCCUGUCAGAUUCUGGUUAAUCUGCGAAUUCUCCUGU, GGGGGCCACAGCAGAAGCGUUCACGUCGCGGCCCCUGUCAGAUUCUGGUUAAUCUGCGAAUUCUUCUGU is higher in self-cleavage: 0.73 for the first, 0.809 for the second.

Going from GGGGGCCACAGCAGAAGCGUUCACGUCGCGGCCCCUGUCAGAUUCUGGUAAGUCUGCGAAUUCUGCUGU to GGGGGCCACAGCAGAAGCGUUCACGUCGCGGCCCCUGUCAGAUUCUGGUAAAUCUGCGAAUUCUGAUGU, the self-cleavage falls from 1 to 0.848.

Compared with GGGGGCCACAGCAGAAGCGUUCACGUCGCGGCCCCUGUCAGAUUCUGGUAAAUCUGCGAAUUCUGGUGU, GGGGGCCACAGCAGAAGCGUUCACGUCGCGGCCCCUGUCAGAUUCUGGGGAAUCUGCGAAUUCUGCUGA is higher in self-cleavage: 0.902 for the first, 1.01 for the second.

Compared with GGGGGCCACAGCAGAAGCGUUCACGUCGCGGCCCCUGUCAGAUUCUGGGGAAUCUGCGAAUUCUGCUGC, GGGGGCCACAGCAGAAGCGUUCACGUCGCGGCCCCUGUCAGAUUCUGGGGAAUCUGCUAAUUCUGCUGU is lower in self-cleavage: 1.06 for the first, 0.957 for the second.

First: GGGGGCCACAGCAGAAGCGUUCACGUCGCGGCCCCUGUCAGAUUCUGGGGAAUCUGCCAAUUCUGCUGU
Second: GGGGGCCACAGCAGAAGCGUUCACGUCGCGGCCCCUGUCAGAUUCUGGUACAUCUGCGAAUUCUGCUGU
The self-cleavage of the first is lower: 1 for the first, 1.02 for the second.

First: GGGGGCCACAGCAGAAGCGUUCACGUCGCGGCCCCUGUCAGAUUCUGGUCAAUCUCCGAAUUCUGCUGU
Second: GGGGGCCACAGCAGAAGCGUUCACGUCGCGGCCCCUGUCAGAUUCUGGUCAAUCUGCGAAUUCAGCUGU
The self-cleavage of the first is lower: 0.456 for the first, 0.792 for the second.

First: GGGGGCCACAGCAGAAGCGUUCACGUCGCGGCCCCUGUCAGAUUCUGGGGAAUCAGCGAAUUCUGCUGU
Second: GGGGGCCACAGCAGAAGCGUUCACGUCGCGGCCCCUGUCAGAUUCUGGUAAAUCUGCGAAUUCUGCUAU
The self-cleavage of the first is lower: 0.968 for the first, 1.03 for the second.
